Experimental data taken from patent publication US20050054575A1 (US Dept. of Health and Human Services, published 2005).

B1: PSA-3 (L-155) also called PSA-3A (peptide)
peptide: VLSNDVCAQV
notes: Synthetic analog peptide; also called agonist peptide PSA-3A
B2: PSA-3 (Y-154/L-155) (peptide)
peptide: YLSNDVCAQV
notes: Synthetic analog peptide; also called PSA-3 (L155/Y154)

How the values were obtained:
HLA-A2 [1] = target: T1, HLA-A2 (human); experiment: flow cytometry of HLA-A2 on T2A2 cells, peptide 0 to 50 µg/ml
T1 construct: whole, on cells; also called HLA-A2.1; MHC-class I A2
Description: (§1) Peptide Binding to HLA-A2. […] Briefly, 1×10⁶ cells in serum-free Iscove's modified Dulbecco's complete medium were incubated with peptides at a concentration of 50 μg/ml in 24 well culture plates at 37° C. in 5% CO₂. Flow cytometry for peptide binding was performed using T2 cells and single-color analysis. After cells were washed three times in DPBS, as described above, they were incubated for 1 h with HLA-A2 specific MAb (One Lambda, Inc.) using […] of a 1× working dilution per 10⁶ cells. UPC-10 (Cappel/Organon Teknika) was used as isotype control. The cells were washed three times and incubated with 1:100 dilution of FITC-labeled anti-mouse IgG (Becton Dickinson). Analysis was conducted with the FACScan, as described above. Cells were maintained on ice during all cell preparation and staining.

HLA-A2 [2] = target: T1, HLA-A2; experiment: flow cytometry of HLA-A2 on peptide-loaded T2A2 cells
Description: as §1

HLA-A2 [3] = target: T1, HLA-A2; experiment: flow cytometry of HLA-A2 on T2A2 cells
Description: as §1

Binder | binding result (HLA-A2 [3]) | further results
B1 | – | binding result (HLA-A2 [1]): binds
VISNDVCAQL (Synthetic analog peptide) [PSA-3 (L-163)] | – | binding result (HLA-A2 [2]): no binding (tested: 0 to 50 µg/ml)
YISNDVCAQV (Synthetic analog peptide) [PSA-3 (Y-154)] | binds | –
B2 | binds | –
